Reference: paper PMC10786891, “Massively parallel profiling of RNA-targeting CRISPR-Cas13d”

T1: EsCas13d, nuclease-dead (Eubacterium siraeum, UniProt B0MS50, R295A;H300A;R849A;H854A)
T1 sequence: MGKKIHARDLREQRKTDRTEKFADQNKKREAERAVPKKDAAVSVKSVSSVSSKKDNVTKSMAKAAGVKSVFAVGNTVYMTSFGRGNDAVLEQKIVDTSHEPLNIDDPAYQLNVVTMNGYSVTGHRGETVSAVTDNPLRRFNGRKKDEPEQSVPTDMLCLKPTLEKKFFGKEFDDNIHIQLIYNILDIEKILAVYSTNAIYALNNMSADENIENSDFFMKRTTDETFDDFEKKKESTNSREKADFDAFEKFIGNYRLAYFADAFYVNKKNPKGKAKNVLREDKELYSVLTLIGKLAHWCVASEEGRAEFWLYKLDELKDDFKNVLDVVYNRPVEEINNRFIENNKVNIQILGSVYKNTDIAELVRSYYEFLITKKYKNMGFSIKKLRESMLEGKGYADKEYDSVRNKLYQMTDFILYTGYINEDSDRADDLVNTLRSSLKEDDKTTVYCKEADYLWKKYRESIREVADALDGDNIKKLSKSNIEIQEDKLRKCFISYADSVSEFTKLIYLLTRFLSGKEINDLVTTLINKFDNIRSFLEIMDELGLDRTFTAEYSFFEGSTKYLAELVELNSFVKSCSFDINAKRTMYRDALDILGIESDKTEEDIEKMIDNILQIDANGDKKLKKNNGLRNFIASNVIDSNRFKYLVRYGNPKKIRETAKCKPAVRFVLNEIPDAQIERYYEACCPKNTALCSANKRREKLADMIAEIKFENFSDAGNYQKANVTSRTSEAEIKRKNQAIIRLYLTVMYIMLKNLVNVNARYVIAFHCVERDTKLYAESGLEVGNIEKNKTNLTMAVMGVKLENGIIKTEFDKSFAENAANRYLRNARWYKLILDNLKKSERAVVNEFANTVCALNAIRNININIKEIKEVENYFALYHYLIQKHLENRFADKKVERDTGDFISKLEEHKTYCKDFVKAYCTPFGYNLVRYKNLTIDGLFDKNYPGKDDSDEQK


Target: T1, EsCas13d, nuclease-dead
Assay: crRNA (strand 1, pre-loaded); Mg2+; 40 mM Tris-HCl pH 7.5, 150 mM NaCl, 6 mM MgCl2, 1 mM DTT, 0.1% Tween-20, 0.2 mg/ml BSA; 25 C; 10 min per concentration, then washed
Conditions: tags: His6-TwinStrep-SUMO cleaved; N-terminal SNAP kept (SNAP-Surface 488); label: 3' end held by stalled T7 RNA polymerase

Binder | Kd
target 3 insA 3' of 21,insC 3' of 4 (mixed) RNA 1: CACCCGUGCAAAAUUGCAGGGGUCUAAAACGACCUGAAUAUUUCAGAUCAAA RNA 2: GGGAAUGGAUCCACAUCUACGAAUUCGUUUUAUGAUCUGAAAUAUUCAGCGUCUGCAGAUCGGAAGAGCACACGU | 50.5 ± 15.5 nM
target 3 insC 3' of 5,insC 3' of 2 (mixed) RNA 1: CACCCGUGCAAAAUUGCAGGGGUCUAAAACGACCUGAAUAUUUCAGAUCAAA RNA 2: GGGAAUGGAUCCACAUCUACGAAUUCGUUUUUGAUCUGAAAUAUUCACGGUCCUGCAGAUCGGAAGAGCACACGU | 9.9 ± 1.35 nM
target 3 insC 3' of 9,insC 3' of 4 (mixed) RNA 1: CACCCGUGCAAAAUUGCAGGGGUCUAAAACGACCUGAAUAUUUCAGAUCAAA RNA 2: GGGAAUGGAUCCACAUCUACGAAUUCGUUUUUGAUCUGAAAUACUUCAGCGUCUGCAGAUCGGAAGAGCACACGU | 87.5 ± 28 nM
target 3 insG 3' of 6,insC 3' of 3 (mixed) RNA 1: CACCCGUGCAAAAUUGCAGGGGUCUAAAACGACCUGAAUAUUUCAGAUCAAA RNA 2: GGGAAUGGAUCCACAUCUACGAAUUCGUUUUUGAUCUGAAAUAUUCGAGGCUCUGCAGAUCGGAAGAGCACACGU | 17.5 ± 1.3 nM
target 3 insU 3' of 6,insU 3' of 3 (mixed) RNA 1: CACCCGUGCAAAAUUGCAGGGGUCUAAAACGACCUGAAUAUUUCAGAUCAAA RNA 2: GGGAAUGGAUCCACAUCUACGAAUUCGUUUUUGAUCUGAAAUAUUCUAGGUUCUGCAGAUCGGAAGAGCACACGU | 12.9 ± 2 nM
target 3 G4U,A18G (mixed) RNA 1: CACCCGUGCAAAAUUGCAGGGGUCUAAAACGACCUGAAUAUUUCAGAUCAAA RNA 2: GGGAAUGGAUCCACAUCUACGAAUUCGUUUUUGGUCUGAAAUAUUCAUGUCUGCAGAUCGGAAGAGCACACGU | 9.75 ± 1.45 nM
target 3 A9G (mixed) RNA 1: CACCCGUGCAAAAUUGCAGGGGUCUAAAACGACCUGAAUAUUUCAGAUCAAA RNA 2: GGGAAUGGAUCCACAUCUACGAAUUCGUUUUUGAUCUGAAAUGUUCAGGUCUGCAGAUCGGAAGAGCACACGU | 29.1 ± 2.85 nM
target 3 C1G,U7A (mixed) RNA 1: CACCCGUGCAAAAUUGCAGGGGUCUAAAACGACCUGAAUAUUUCAGAUCAAA RNA 2: GGGAAUGGAUCCACAUCUACGAAUUCGUUUUUGAUCUGAAAUAUACAGGUGUGCAGAUCGGAAGAGCACACGU | 15.3 ± 4.1 nM
target 3 G3C,C6G (mixed) RNA 1: CACCCGUGCAAAAUUGCAGGGGUCUAAAACGACCUGAAUAUUUCAGAUCAAA RNA 2: GGGAAUGGAUCCACAUCUACGAAUUCGUUUUUGAUCUGAAAUAUUGAGCUCUGCAGAUCGGAAGAGCACACGU | 34.2 ± 4.7 nM
target 3 insU 3' of 4,insA 3' of 4 (mixed) RNA 1: CACCCGUGCAAAAUUGCAGGGGUCUAAAACGACCUGAAUAUUUCAGAUCAAA RNA 2: GGGAAUGGAUCCACAUCUACGAAUUCGUUUUUGAUCUGAAAUAUUCAGUAGUCUGCAGAUCGGAAGAGCACACGU | 22.9 ± 3.25 nM
target 3 insU 3' of 3,insG 3' of 1 (mixed) RNA 1: CACCCGUGCAAAAUUGCAGGGGUCUAAAACGACCUGAAUAUUUCAGAUCAAA RNA 2: GGGAAUGGAUCCACAUCUACGAAUUCGUUUUUGAUCUGAAAUAUUCAGGUUCGUGCAGAUCGGAAGAGCACACGU | 37.4 ± 4.85 nM
target 3 G4C (mixed) RNA 1: CACCCGUGCAAAAUUGCAGGGGUCUAAAACGACCUGAAUAUUUCAGAUCAAA RNA 2: GGGAAUGGAUCCACAUCUACGAAUUCGUUUUUGAUCUGAAAUAUUCACGUCUGCAGAUCGGAAGAGCACACGU | 10.7 ± 1 nM
target 3 insU 3' of 22,insA 3' of 3 (mixed) RNA 1: CACCCGUGCAAAAUUGCAGGGGUCUAAAACGACCUGAAUAUUUCAGAUCAAA RNA 2: GGGAAUGGAUCCACAUCUACGAAUUCGUUUUUUGAUCUGAAAUAUUCAGGAUCUGCAGAUCGGAAGAGCACACGU | 22.1 ± 2.4 nM
target 3 A5U,C6G (mixed) RNA 1: CACCCGUGCAAAAUUGCAGGGGUCUAAAACGACCUGAAUAUUUCAGAUCAAA RNA 2: GGGAAUGGAUCCACAUCUACGAAUUCGUUUUUGAUCUGAAAUAUUGUGGUCUGCAGAUCGGAAGAGCACACGU | 39 ± 4.5 nM
target 3 C1G,G4C (mixed) RNA 1: CACCCGUGCAAAAUUGCAGGGGUCUAAAACGACCUGAAUAUUUCAGAUCAAA RNA 2: GGGAAUGGAUCCACAUCUACGAAUUCGUUUUUGAUCUGAAAUAUUCACGUGUGCAGAUCGGAAGAGCACACGU | 16.8 ± 3.25 nM
target 3 del2,del5 (mixed) RNA 1: CACCCGUGCAAAAUUGCAGGGGUCUAAAACGACCUGAAUAUUUCAGAUCAAA RNA 2: GGGAAUGGAUCCACAUCUACGAAUUCGUUUUUGAUCUGAAAUAUUCGGCUGCAGAUCGGAAGAGCACACGU | 5.35 ± 0.45 nM
target 3 G19U,U20G (mixed) RNA 1: CACCCGUGCAAAAUUGCAGGGGUCUAAAACGACCUGAAUAUUUCAGAUCAAA RNA 2: GGGAAUGGAUCCACAUCUACGAAUUCGUUUUGUAUCUGAAAUAUUCAGGUCUGCAGAUCGGAAGAGCACACGU | 33.5 ± 7 nM
target 3 C6U,A13G (mixed) RNA 1: CACCCGUGCAAAAUUGCAGGGGUCUAAAACGACCUGAAUAUUUCAGAUCAAA RNA 2: GGGAAUGGAUCCACAUCUACGAAUUCGUUUUUGAUCUGGAAUAUUUAGGUCUGCAGAUCGGAAGAGCACACGU | 34 ± 6 nM
target 3 C1U,U7A (mixed) RNA 1: CACCCGUGCAAAAUUGCAGGGGUCUAAAACGACCUGAAUAUUUCAGAUCAAA RNA 2: GGGAAUGGAUCCACAUCUACGAAUUCGUUUUUGAUCUGAAAUAUACAGGUUUGCAGAUCGGAAGAGCACACGU | 36.5 ± 15.5 nM
target 3 insA 3' of 21,insU 3' of 3 (mixed) RNA 1: CACCCGUGCAAAAUUGCAGGGGUCUAAAACGACCUGAAUAUUUCAGAUCAAA RNA 2: GGGAAUGGAUCCACAUCUACGAAUUCGUUUUAUGAUCUGAAAUAUUCAGGUUCUGCAGAUCGGAAGAGCACACGU | 46.3 ± 13.7 nM
target 3 C6A,U7C (mixed) RNA 1: CACCCGUGCAAAAUUGCAGGGGUCUAAAACGACCUGAAUAUUUCAGAUCAAA RNA 2: GGGAAUGGAUCCACAUCUACGAAUUCGUUUUUGAUCUGAAAUAUCAAGGUCUGCAGAUCGGAAGAGCACACGU | 69 ± 9.5 nM
target 3 insG 3' of 22,insA 3' of 22 (mixed) RNA 1: CACCCGUGCAAAAUUGCAGGGGUCUAAAACGACCUGAAUAUUUCAGAUCAAA RNA 2: GGGAAUGGAUCCACAUCUACGAAUUCGUUUGAUUGAUCUGAAAUAUUCAGGUCUGCAGAUCGGAAGAGCACACGU | 41.5 ± 4.5 nM
target 3 insG 3' of 7,insA 3' of 3 (mixed) RNA 1: CACCCGUGCAAAAUUGCAGGGGUCUAAAACGACCUGAAUAUUUCAGAUCAAA RNA 2: GGGAAUGGAUCCACAUCUACGAAUUCGUUUUUGAUCUGAAAUAUUGCAGGAUCUGCAGAUCGGAAGAGCACACGU | 38 ± 5.5 nM
target 3 U7A (mixed) RNA 1: CACCCGUGCAAAAUUGCAGGGGUCUAAAACGACCUGAAUAUUUCAGAUCAAA RNA 2: GGGAAUGGAUCCACAUCUACGAAUUCGUUUUUGAUCUGAAAUAUACAGGUCUGCAGAUCGGAAGAGCACACGU | 27.8 ± 3.6 nM
target 3 insA 3' of 3,insG 3' of 1 (mixed) RNA 1: CACCCGUGCAAAAUUGCAGGGGUCUAAAACGACCUGAAUAUUUCAGAUCAAA RNA 2: GGGAAUGGAUCCACAUCUACGAAUUCGUUUUUGAUCUGAAAUAUUCAGGAUCGUGCAGAUCGGAAGAGCACACGU | 52 ± 11 nM
target 1 insC 3' of 18,insC 3' of 1 (mixed) RNA 1: CACCCGUGCAAAAAUGCAGGGGUCUAAAACUGAGCGGAUAACCUCUCUAUGG RNA 2: GGGAAUGGAUCCACAUCUACGAAUUCGUACCAUACGAGAGGUUAUCCGCUCACCCGAGAUCGGAAGAGCACACGU | 29 ± 5 nM
target 1 C2A,C6G (mixed) RNA 1: CACCCGUGCAAAAAUGCAGGGGUCUAAAACUGAGCGGAUAACCUCUCUAUGG RNA 2: GGGAAUGGAUCCACAUCUACGAAUUCGUACCAUAGAGAGGUUAUCGGCUAACCGAGAUCGGAAGAGCACACGU | 6.03 ± 0.34 nM
target 1 insC 3' of 18,insA 3' of 7 (mixed) RNA 1: CACCCGUGCAAAAAUGCAGGGGUCUAAAACUGAGCGGAUAACCUCUCUAUGG RNA 2: GGGAAUGGAUCCACAUCUACGAAUUCGUACCAUACGAGAGGUUAUCACGCUCACCGAGAUCGGAAGAGCACACGU | 29 ± 1.6 nM
